According to US12674174B2, “Protoporphyrinogen oxidase (PPO) resistance plant” (PLANTARC BIO LTD., priority 2022, dated 2026):
Entries after “also recorded” stand apart in the source; their conditions may differ.

System: Arabidopsis plants
Conditions: for rank among fungal isolated-PPO genes for growth in the presence of Strike, Star, Goal and Aurora: Strike 2.5, Star 1.25, Goal 1.15, Aurora 1.0 kg/hectare; for herbicides against which tolerance was shown: FIG. 3C, Strike, Star, Goal, Aurora tested; for High concentration herbicide tolerance: Table 1; for High concentration herbicide tolerance / Herbicide tolerance: yes/no; for Herbicide tolerance: Table 2, FIG. 6C legend: Star 1.25 kg/hectare

Molecule	High concentration herbicide tolerance	Herbicide tolerance	also measured
SEQ ID NO: 114: PPO from Trichoderma sp. fused to cTP. Chimeric Protein; cloned from SEQ ID NO: 96 (protein, listed as Trichoderma sp.) MELSLLRPTTQSLLPSFSKPNLRLNVYKPLRLRCSVAGGMSLKRADGAAMAFLRLSSAVCGRRRIPAGGLPADANVAVLGGGLTGLTTAYYLAKWLPPTAKITLLEASDRLGGWIKTDRVPVKVGGVEGVVSFERGPRSLSSLNKSTWRFDDLVLWDLALDLGLRVVSPPDKPRYIYYPDHLVPLPPHTSLAAFASEPLVLESLWAGFGYVLRRLFSRKAGVPVQDLSIADWIQHITGSRAVAENLASAMVHGIYGGDIYTLSARSVLDRFYWVHYLPALGPDVRHMALSEQVFMEAMGQDPLIRKLAQQPRGALLNFGEAGMETLPIALADALNGQANVEVKLGAKVTGLEYESETEMMKITTTGQDDSPAEKYHKVISTLPSQHLARITDTLPSLASSHAVSIMTVNIWYPQTNLKPPGFGYLIPLSVPAEQNPERALGVFFDSDVGVRGPDEPAGTKLFVLMGGHYYDKKQPGASVRVPSEEEAIEQAKRVLERHLGIPQSTPCFAMARLASECIPQYVCGHQDTMAAADEDLRDSFDGRLAVAGGSYTKIGAMGALRNGYDIANTVVREDWLTTGLEQLEFPTQFCGVPTERIPVRRFSRR			rank among fungal isolated-PPO genes for growth in the presence of Strike, Star, Goal and Aurora: top 3
SEQ ID NO: 112: PPO from Penicillium sp. fused to cTP. Chimeric Protein; cloned from SEQ ID NO: 94 (protein, listed as Penicillium sp.) MELSLLRPTTQSLLPSFSKPNLRLNVYKPLRLRCSVAGGMRLLTASKGLRSPQKPLISAIRCQHRSYNAAVIGGGITGLTAAWQLIQDRECSSVTIYEKSRRLGGWLQSETIPVEGGEVVFEYGPRTLRSAMPASLPLLYLVSNLGLFDELITTSKRSPAALNRYIYYPDHLVRLPTPDPDLSLMENARNIFRTITTEPLFEGFITGLLSEPNKPARPQEEWAIDESLAEFITRRFNRKIADNLVSAVMHGIYADNIDEMSAQAIMGPLRNLEDGGILFGLLIKSIMGKKTRSMDDFLAVDAVYKTPETMQRLDEINRVVKTASTFTFKRGTQQLVEGLTRALRASEKVRLVMDADILALDPPANRGHKLKIYTGIRGEESFDHVISAISAPAMARILDPQGQVKIDCDPEDEYRALWNSKKARHPKPNIGTVSGLHFFRHATTVMVVNLYYKTPNLLPVDGFGYLIPRSIPYEQNPECGLGVIFASASSSGESPVAPYPKVSQDSAPGTKITIMFGGHYWDGWKKQDYPDHKTAVRMAKDMLERHLGITEPPALVRTRLQENAIPKYKPPHIHQIYALSRWAKEEYHNRLVLVGNSFSGVGVGDCVRQGIMAATHGVGRHKLTATPRLESKDWCPWKEYNYQHWDLKGGVPTAPVRLFESDI			herbicides against which tolerance was shown: tolerances against Goal and Star herbicides only
SEQ ID NO: 103: Nicotiana tabacum protoporphyrinogen oxidase, mitochondrial, NP_001312887.1 (protein, listed as Nicotiana tabacum) MAPSAGEDKHSSAKRVAVIGAGVSGLAAAYKLKIHGLNVTVFEAEGKAGGKLRSVSQDGLIWDEGANTMTESEGDVTFLIDSLGLREKQQFPLSQNKRYIARNGTPVLLPSNPIDLIKSNFLSTGSKLQMLLEPILWKNKKLSQVSDSHESVSGFFQRHFGKEVVDYLIDPFVAGTCGGDPDSLSMHHSFPELWNLEKRFGSVILGAIRSKLSPKNEKKQGPPKTSANKKRQRGSFSFLGGMQTLTDAICKDLREDELRLNSRVLELSCSCTEDSAIDSWSIISASPHKRQSEEESFDAVIMTAPLCDVKSMKIAKRGNPFLLNFIPEVDYVPLSVVITTFKRENVKYPLEGFGVLVPSKEQQHGLKTLGTLFSSMMFPDRAPNNVYLYTTFVGGSRNRELAKASRTELKEIVTSDLKQLLGAEGEPTYVNHLYWSKAFPLYGHNYDSVLDAIDKMEKNLPGLFYAGNHRGGLSVGKALSSGCNAADLVISYLESVSTDSKRHC	no		
SEQ ID NO: 97: PPO from Rhodotorula sp. Protein. (protein, listed as Rhodotorula sp.) MQSYSGNALARQSVPIKPIRRRTPRLNLIRSLPSPRFFVTSPSSSQRHDHPYHTLAILGGGLSGLSTAHYFLRTLSPSLRDQTRIVVLEKEERVGGWCRAVRIQNGRRLGENEKPEGTEDLLVFETGPRSVRPVGLLGWLTIEMAHELGLTPSIVTVPKSAPSARNRFIYTGHRSSTSISPILKAALPTIPSALLEPFRPRSPLHDDPSGLADESVDSFIARRFGRRLADELASAGIHGIYAGDTRRLSVRAVLPALWELEKEWGSVVIGALFGSFARRRGWKKNSPWRMRQQAETEEMERVKERIRAKGGEALVEDMEKASVWGVKGGLQVVTETLREKLEAEGVEFWMGEKGKVEHVEKVDGGWQIRTSSGALDASQLVTTIPQLLPSSLAPPALPATTVSVVNLAFEKPAPGSPPLHPAGFGYLIPRTVPSSLNPHRALGVIFDSDVMPDVDSSSSLGLTKLSLLLGGSYWLDRHPPPQPSHDDLVNAALETLRLHFPDRPIPKPVHAFTHTHVNCIPQVPPGFMPSFRAFGDRLREAGNVAVVGGGFAAVGVNGCVKAAWEVGSAMAQAVNAQAGGKEGEGEEKVREAVARTVKTGTEMWEL	yes	yes	
SEQ ID NO: 96: PPO from Trichoderma sp. Protein. (protein, listed as Trichoderma sp.) MSLKRADGAAMAFLRLSSAVCGRRRIPAGGLPADANVAVLGGGLTGLTTAYYLAKWLPPTAKITLLEASDRLGGWIKTDRVPVKVGGVEGVVSFERGPRSLSSLNKSTWRFDDLVLWDLALDLGLRVVSPPDKPRYIYYPDHLVPLPPHTSLAAFASEPLVLESLWAGFGYVLRRLFSRKAGVPVQDLSIADWIQHITGSRAVAENLASAMVHGIYGGDIYTLSARSVLDRFYWVHYLPALGPDVRHMALSEQVFMEAMGQDPLIRKLAQQPRGALLNFGEAGMETLPIALADALNGQANVEVKLGAKVTGLEYESETEMMKITTTGQDDSPAEKYHKVISTLPSQHLARITDTLPSLASSHAVSIMTVNIWYPQTNLKPPGFGYLIPLSVPAEQNPERALGVFFDSDVGVRGPDEPAGTKLFVLMGGHYYDKKQPGASVRVPSEEEAIEQAKRVLERHLGIPQSTPCFAMARLASECIPQYVCGHQDTMAAADEDLRDSFDGRLAVAGGSYTKIGAMGALRNGYDIANTVVREDWLTTGLEQLEFPTQFCGVPTERIPVRRFSRR	yes	yes	
SEQ ID NO: 116: PPO from Hesseltinella sp. fused to cTP. Chimeric Protein; cloned from SEQ ID NO: 98 (protein, listed as Hesseltinella sp.) MELSLLRPTTQSLLPSFSKPNLRLNVYKPLRLRCSVAGGMPRSIVVLGGGISGLSAAYYLSRLVPQAHIRLIESNKRAGGFIKTQQVNDHLIFEAGPRTLRPHGTSGTVLLDMIKDLDLSPLLVNIPKSHPSAQHRYIEYHGQINQLPSGLADMLLHSPPIMDSVITAGMREPFLARASTTKDESLYNFMERRFNEHTALNLMGAMAHGIYAGDAKQLSVHSTFPILAACEQEYGSVVLGMLSGKLSVESPRERQLADACRAKDPEWFKQMQQSSVLGFLPGLGALPSRLTQFLSSQPNVSMQLGETVSRLDGQSSHQIEITTSQGQIYHADHIVSTLPSHALARISMPTTTSLPHLTHNPSADVALVNLAYEKCKVKPGLDGFGFLTPHADTMPPSQFPGLLGMIFDSNSLGVQDQDSNMVRFTAMIGGADWNLAFGSLHDNDAISSKALTMATAALSKYLEIHESPAHYHCRILRQCIPQYLVGHRQRMNELHAALQHSFGHTMSVTGASYLGVSVPDCIKHSRMLIEDLVDTGALGSKQAVITGLEKVTLPMYYKL			herbicides against which tolerance was shown: tolerances against Goal and Star herbicides only
SEQ ID NO: 94: PPO from Penicillium sp. Protein. (protein, listed as Penicillium sp.) MRLLTASKGLRSPQKPLISAIRCQHRSYNAAVIGGGITGLTAAWQLIQDRECSSVTIYEKSRRLGGWLQSETIPVEGGEVVFEYGPRTLRSAMPASLPLLYLVSNLGLFDELITTSKRSPAALNRYIYYPDHLVRLPTPDPDLSLMENARNIFRTITTEPLFEGFITGLLSEPNKPARPQEEWAIDESLAEFITRRFNRKIADNLVSAVMHGIYADNIDEMSAQAIMGPLRNLEDGGILFGLLIKSIMGKKTRSMDDFLAVDAVYKTPETMQRLDEINRVVKTASTFTFKRGTQQLVEGLTRALRASEKVRLVMDADILALDPPANRGHKLKIYTGIRGEESFDHVISAISAPAMARILDPQGQVKIDCDPEDEYRALWNSKKARHPKPNIGTVSGLHFFRHATTVMVVNLYYKTPNLLPVDGFGYLIPRSIPYEQNPECGLGVIFASASSSGESPVAPYPKVSQDSAPGTKITIMFGGHYWDGWKKQDYPDHKTAVRMAKDMLERHLGITEPPALVRTRLQENAIPKYKPPHIHQIYALSRWAKEEYHNRLVLVGNSFSGVGVGDCVRQGIMAATHGVGRHKLTATPRLESKDWCPWKEYNYQHWDLKGGVPTAPVRLFESDI	yes	yes	
SEQ ID NO: 115: PPO from Rhodotorula sp. fused to cTP. Chimeric Protein; cloned from SEQ ID NO: 97 (protein, listed as Rhodotorula sp.) MELSLLRPTTQSLLPSFSKPNLRLNVYKPLRLRCSVAGGMQSYSGNALARQSVPIKPIRRRTPRLNLIRSLPSPRFFVTSPSSSQRHDHPYHTLAILGGGLSGLSTAHYFLRTLSPSLRDQTRIVVLEKEERVGGWCRAVRIQNGRRLGENEKPEGTEDLLVFETGPRSVRPVGLLGWLTIEMAHELGLTPSIVTVPKSAPSARNRFIYTGHRSSTSISPILKAALPTIPSALLEPFRPRSPLHDDPSGLADESVDSFIARRFGRRLADELASAGIHGIYAGDTRRLSVRAVLPALWELEKEWGSVVIGALFGSFARRRGWKKNSPWRMRQQAETEEMERVKERIRAKGGEALVEDMEKASVWGVKGGLQVVTETLREKLEAEGVEFWMGEKGKVEHVEKVDGGWQIRTSSGALDASQLVTTIPQLLPSSLAPPALPATTVSVVNLAFEKPAPGSPPLHPAGFGYLIPRTVPSSLNPHRALGVIFDSDVMPDVDSSSSLGLTKLSLLLGGSYWLDRHPPPQPSHDDLVNAALETLRLHFPDRPIPKPVHAFTHTHVNCIPQVPPGFMPSFRAFGDRLREAGNVAVVGGGFAAVGVNGCVKAAWEVGSAMAQAVNAQAGGKEGEGEEKVREAVARTVKTGTEMWEL			rank among fungal isolated-PPO genes for growth in the presence of Strike, Star, Goal and Aurora: top 3; also recorded: top 2
